Measurements taken from PMC10786891, “Massively parallel profiling of RNA-targeting CRISPR-Cas13d”.
Changes are numbered by the printed parent chain. Names may count otherwise.

T1: EsCas13d, nuclease-dead (Eubacterium siraeum, UniProt B0MS50, R295A;H300A;R849A;H854A)
T1 sequence: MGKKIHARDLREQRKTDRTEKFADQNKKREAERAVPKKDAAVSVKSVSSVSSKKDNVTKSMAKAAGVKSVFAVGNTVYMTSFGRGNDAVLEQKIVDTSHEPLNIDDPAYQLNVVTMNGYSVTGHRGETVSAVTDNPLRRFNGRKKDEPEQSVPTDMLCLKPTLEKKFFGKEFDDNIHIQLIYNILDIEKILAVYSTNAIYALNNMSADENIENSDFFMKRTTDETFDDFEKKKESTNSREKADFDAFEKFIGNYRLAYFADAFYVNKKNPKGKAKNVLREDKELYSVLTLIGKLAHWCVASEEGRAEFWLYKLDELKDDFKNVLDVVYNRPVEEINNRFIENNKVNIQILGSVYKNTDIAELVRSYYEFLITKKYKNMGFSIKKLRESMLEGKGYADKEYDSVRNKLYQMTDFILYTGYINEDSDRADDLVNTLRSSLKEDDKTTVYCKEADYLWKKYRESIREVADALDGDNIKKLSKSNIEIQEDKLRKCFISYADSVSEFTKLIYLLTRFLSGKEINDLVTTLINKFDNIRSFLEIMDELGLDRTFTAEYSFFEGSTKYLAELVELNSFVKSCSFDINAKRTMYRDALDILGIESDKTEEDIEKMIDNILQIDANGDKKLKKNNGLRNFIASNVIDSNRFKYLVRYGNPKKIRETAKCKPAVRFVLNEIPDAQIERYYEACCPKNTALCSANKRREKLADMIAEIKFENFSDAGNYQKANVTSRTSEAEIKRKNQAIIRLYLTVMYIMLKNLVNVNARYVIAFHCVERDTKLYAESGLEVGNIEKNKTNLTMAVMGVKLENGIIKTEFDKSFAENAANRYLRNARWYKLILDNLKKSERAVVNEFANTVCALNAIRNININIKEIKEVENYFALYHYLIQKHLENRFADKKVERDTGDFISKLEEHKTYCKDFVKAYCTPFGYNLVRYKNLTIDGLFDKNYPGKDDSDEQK

B1: target 1 C4A,C6A (mixed)
RNA 1: CACCCGUGCAAAAAUGCAGGGGUCUAAAACUGAGCGGAUAACCUCUCUAUGG
RNA 2: GGGAAUGGAUCCACAUCUACGAAUUCGUACCAUAGAGAGGUUAUCAGAUCACCGAGAUCGGAAGAGCACACGU
B2: target 1 insG 3' of 22,insA 3' of 7 (mixed)
RNA 1: B1 RNA 1
RNA 2: GGGAAUGGAUCCACAUCUACGAAUUCGUACGCAUAGAGAGGUUAUCACGCUCACCGAGAUCGGAAGAGCACACGU
B3: target 1 insU 3' of 18,insG 3' of 8 (mixed)
RNA 1: B1 RNA 1
RNA 2: B2 RNA 2 with G31C, C32A, A33U, U34A, A35U, C46G, A47C
B4: target 2 MT 5'PFS GGG 3'PFS CCA (mixed)
RNA 1: CACCCGUGCAAAAUUGCAGGGGUCUAAAACCUUCUCCAAAUUGUUUCAUCCU
RNA 2: GGGAAUGGAUCCACAUCUACGAAUUCGGGAGGAUGAAACAAUUUGGAGAAGCCAAGAUCGGAAGAGCACACGU
B5: target 2 MT 5'PFS CAG 3'PFS AAA (mixed)
RNA 1: B4 RNA 1
RNA 2: B4 RNA 2 with G27C, G28A, C52A, C53A
B6: target 2 MT 5'PFS UUG 3'PFS ACG (mixed)
RNA 1: B4 RNA 1
RNA 2: B4 RNA 2 with G27U, G28U, C52A, A54G
B7: target 2 MT 5'PFS GGA 3'PFS AAA (mixed)
RNA 1: B4 RNA 1
RNA 2: B4 RNA 2 with G29A, C52A, C53A
B8: target 2 MT 5'PFS GCA 3'PFS AUA (mixed)
RNA 1: B4 RNA 1
RNA 2: B4 RNA 2 with G28C, G29A, C52A, C53U
B9: target 2 MT 5'PFS AAC 3'PFS CAU (mixed)
RNA 1: B4 RNA 1
RNA 2: B4 RNA 2 with G27A, G28A, G29C, C53A, A54U
B10: target 2 MT 5'PFS UAA 3'PFS AUG (mixed)
RNA 1: B4 RNA 1
RNA 2: B4 RNA 2 with G27U, G28A, G29A, C52A, C53U, A54G
B11: target 2 MT 5'PFS UUG 3'PFS UCC (mixed)
RNA 1: B4 RNA 1
RNA 2: B4 RNA 2 with G27U, G28U, C52U, A54C
B12: target 2 MT 5'PFS GCA 3'PFS AUU (mixed)
RNA 1: B4 RNA 1
RNA 2: B4 RNA 2 with G28C, G29A, C52A, C53U, A54U
B13: target 2 MT 5'PFS AAC 3'PFS AGC (mixed)
RNA 1: B4 RNA 1
RNA 2: B4 RNA 2 with G27A, G28A, G29C, C52A, C53G, A54C
B14: target 2 MT 5'PFS UGU 3'PFS CGC (mixed)
RNA 1: B4 RNA 1
RNA 2: B4 RNA 2 with G27U, G29U, C53G, A54C
B15: target 2 MT 5'PFS GUA 3'PFS CCA (mixed)
RNA 1: B4 RNA 1
RNA 2: B4 RNA 2 with G28U, G29A
B16: target 2 MT 5'PFS ACG 3'PFS CUU (mixed)
RNA 1: B4 RNA 1
RNA 2: B4 RNA 2 with G27A, G28C, C53U, A54U
B17: target 2 MT 5'PFS UAA 3'PFS AUC (mixed)
RNA 1: B4 RNA 1
RNA 2: B4 RNA 2 with G27U, G28A, G29A, C52A, C53U, A54C
B18: target 2 MT 5'PFS UAC 3'PFS CUU (mixed)
RNA 1: B4 RNA 1
RNA 2: B4 RNA 2 with G27U, G28A, G29C, C53U, A54U
B19: target 2 MT 5'PFS GUG 3'PFS UAG (mixed)
RNA 1: B4 RNA 1
RNA 2: B4 RNA 2 with G28U, C52U, C53A, A54G
B20: target 2 MT 5'PFS GCA 3'PFS AUC (mixed)
RNA 1: B4 RNA 1
RNA 2: B4 RNA 2 with G28C, G29A, C52A, C53U, A54C
B21: target 2 MT 5'PFS UGC 3'PFS UGC (mixed)
RNA 1: B4 RNA 1
RNA 2: B4 RNA 2 with G27U, G29C, C52U, C53G, A54C
B22: target 2 MT 5'PFS UAA 3'PFS AUA (mixed)
RNA 1: B4 RNA 1
RNA 2: B4 RNA 2 with G27U, G28A, G29A, C52A, C53U
B23: target 2 MT 5'PFS UUG 3'PFS ACA (mixed)
RNA 1: B4 RNA 1
RNA 2: B4 RNA 2 with G27U, G28U, C52A
B24: target 2 MT 5'PFS UAC 3'PFS CUC (mixed)
RNA 1: B4 RNA 1
RNA 2: B4 RNA 2 with G27U, G28A, G29C, C53U, A54C
B25: target 2 MT 5'PFS GGA 3'PFS AAG (mixed)
RNA 1: B4 RNA 1
RNA 2: B4 RNA 2 with G29A, C52A, C53A, A54G
B26: target 2 MT 5'PFS UGU 3'PFS CGA (mixed)
RNA 1: B4 RNA 1
RNA 2: B4 RNA 2 with G27U, G29U, C53G
B27: target 2 MT 5'PFS GGA 3'PFS AAU (mixed)
RNA 1: B4 RNA 1
RNA 2: B4 RNA 2 with G29A, C52A, C53A, A54U
B28: target 2 MT 5'PFS UUG 3'PFS ACC (mixed)
RNA 1: B4 RNA 1
RNA 2: B4 RNA 2 with G27U, G28U, C52A, A54C
B29: target 2 MT 5'PFS GGA 3'PFS AAC (mixed)
RNA 1: B4 RNA 1
RNA 2: B4 RNA 2 with G29A, C52A, C53A, A54C
B30: target 2 MT 5'PFS UUG 3'PFS ACU (mixed)
RNA 1: B4 RNA 1
RNA 2: B4 RNA 2 with G27U, G28U, C52A, A54U
B31: target 2 MT 5'PFS ACA 3'PFS CCG (mixed)
RNA 1: B4 RNA 1
RNA 2: B4 RNA 2 with G27A, G28C, G29A, A54G
B32: target 2 MT 5'PFS GCA 3'PFS AUG (mixed)
RNA 1: B4 RNA 1
RNA 2: B4 RNA 2 with G28C, G29A, C52A, C53U, A54G
B33: target 2 MT 5'PFS UAC 3'PFS CUA (mixed)
RNA 1: B4 RNA 1
RNA 2: B4 RNA 2 with G27U, G28A, G29C, C53U

Target: T1, EsCas13d, nuclease-dead
Assay: crRNA (strand 1, pre-loaded); Mg2+; 40 mM Tris-HCl pH 7.5, 150 mM NaCl, 6 mM MgCl2, 1 mM DTT, 0.1% Tween-20, 0.2 mg/ml BSA; 25 C; 10 min per concentration, then washed
Conditions: tags: His6-TwinStrep-SUMO cleaved; N-terminal SNAP kept (SNAP-Surface 488); label: 3' end held by stalled T7 RNA polymerase

Row | Binder | Kd [nM]
1 | B1 | 6.17 ± 0.31
2 | B2 | 15.2 ± 1
3 | B3 | 41 ± 4
4 | B4 | 25 ± 5
5 | B5 | 7.5 ± 2
6 | B6 | 18.5 ± 1.6
7 | B7 | 8.6 ± 1.9
8 | B8 | 7.2 ± 1
9 | B9 | ~8
10 | B10 | 5.6 ± 1.5
11 | B11 | 42 ± 7
12 | B12 | 10.3 ± 1
13 | B13 | 4.4 ± 1.5
14 | B14 | 18.5 ± 2.9
15 | B15 | 17.3 ± 2.4
16 | B16 | 11.1 ± 2.1
17 | B17 | 5.1 ± 0.5

Row | Binder | Kd [nM]
18 | B18 | 7.2 ± 1.1
19 | B19 | 13.3 ± 1.3
20 | B20 | 14 ± 4
21 | B21 | 64 ± 18
22 | B22 | 4.3 ± 0.6
23 | B23 | 15 ± 1.4
24 | B24 | 16 ± 6
25 | B25 | 9.3 ± 1.4
26 | B26 | 10.3 ± 1.7
27 | B27 | 6.7 ± 0.6
28 | B28 | 47 ± 10
29 | B29 | 7.4 ± 0.7
30 | B30 | 16.2 ± 1.8
31 | B31 | 6.3 ± 1
32 | B32 | 8.8 ± 0.9
33 | B33 | 6.8 ± 1
